Data from publication PMC9969250.

B1: nanotrain without L2 on SPR chip (NT0; 5'-biotin-D + C + B + A.1) (mixed)
DNA 1: CGGCAAAGATCTAAAGGCGACAAGGAAAATCCTTCAACGAAGTGGGTCGCCCTAACTCTCTATCCG
DNA 2: TTGAGCTGGTTGTATGGCGACAAGGAAAATCCTTCAACGAAGTGGGTCGCCGGATAGAGAGTTAGG
DNA 3: ATACAACCAGCTCAAGGCGACAAGGAAAATCCTTCAACGAAGTGGGTCGCCATTCATAAACATAAC
DNA 4: GGCGACAAGGAAAATCCTTCAACGAAGTGGGTCGCCGTTATGTTTATGAAT
modifications: 5' biotin on D

Tests used:
[1] = target: T1, Plasmodium falciparum lactate dehydrogenase (PfLDH) (Plasmodium falciparum, UniProt Q76NM3 1-316); assay: SPR
[2] = target: T1, Plasmodium falciparum lactate …; assay: SPR; remark: listed apart in the source

| Binder | binding result [1] | Kd [2] |
| --- | --- | --- |
| B1 | no binding | – |
| TTTAGATCTTTGCCGCTGGGCGGTAGAACCATAGTGACCCAGCCGTCTAC (structured_DNA, biotin (position not given)) [biotinylated L2] | – | 66 ± 7 nM |
